What was measured:
BSA (bovine) = BSA (bovine) (UniProt P02769); assay: enzyme-linked binding assay (ELISA format), non-conjugated HRPO on immobilized BSA
human laminin = human laminin (human); assay: enzyme-linked binding assay (ELISA format), non-conjugated HRPO on immobilized matrix protein
Protocol: (§1) After purification and labeling, it was subjected to an enzyme-linked binding assay with the Immobilized human matrix proteins, collagen type 1, fibronectin and laminin.
(§2) Peroxidase-labeled Cpa-maltose binding protein fusion and recombinant purified maltose-binding protein (for control of specific binding of the bacteria) were added to the wells for 2 h at room temperature. Non-conjugated peroxidase at a 1:300 dilution in PBS-T was used as a negative control. […] All assays were repeated on at least three independent occasions.

human collagen type I = target: T1, human collagen type I (human, UniProt P02452 162-1218; P08123 80-1119, limits assumed); assay: as above
T1 construct: Bought (Gibco BRL), immobilized on plates; also called type I collagen; collagen type 1
T1 sequence (P02452 162-1218 limits assumed, chain 1 of 2): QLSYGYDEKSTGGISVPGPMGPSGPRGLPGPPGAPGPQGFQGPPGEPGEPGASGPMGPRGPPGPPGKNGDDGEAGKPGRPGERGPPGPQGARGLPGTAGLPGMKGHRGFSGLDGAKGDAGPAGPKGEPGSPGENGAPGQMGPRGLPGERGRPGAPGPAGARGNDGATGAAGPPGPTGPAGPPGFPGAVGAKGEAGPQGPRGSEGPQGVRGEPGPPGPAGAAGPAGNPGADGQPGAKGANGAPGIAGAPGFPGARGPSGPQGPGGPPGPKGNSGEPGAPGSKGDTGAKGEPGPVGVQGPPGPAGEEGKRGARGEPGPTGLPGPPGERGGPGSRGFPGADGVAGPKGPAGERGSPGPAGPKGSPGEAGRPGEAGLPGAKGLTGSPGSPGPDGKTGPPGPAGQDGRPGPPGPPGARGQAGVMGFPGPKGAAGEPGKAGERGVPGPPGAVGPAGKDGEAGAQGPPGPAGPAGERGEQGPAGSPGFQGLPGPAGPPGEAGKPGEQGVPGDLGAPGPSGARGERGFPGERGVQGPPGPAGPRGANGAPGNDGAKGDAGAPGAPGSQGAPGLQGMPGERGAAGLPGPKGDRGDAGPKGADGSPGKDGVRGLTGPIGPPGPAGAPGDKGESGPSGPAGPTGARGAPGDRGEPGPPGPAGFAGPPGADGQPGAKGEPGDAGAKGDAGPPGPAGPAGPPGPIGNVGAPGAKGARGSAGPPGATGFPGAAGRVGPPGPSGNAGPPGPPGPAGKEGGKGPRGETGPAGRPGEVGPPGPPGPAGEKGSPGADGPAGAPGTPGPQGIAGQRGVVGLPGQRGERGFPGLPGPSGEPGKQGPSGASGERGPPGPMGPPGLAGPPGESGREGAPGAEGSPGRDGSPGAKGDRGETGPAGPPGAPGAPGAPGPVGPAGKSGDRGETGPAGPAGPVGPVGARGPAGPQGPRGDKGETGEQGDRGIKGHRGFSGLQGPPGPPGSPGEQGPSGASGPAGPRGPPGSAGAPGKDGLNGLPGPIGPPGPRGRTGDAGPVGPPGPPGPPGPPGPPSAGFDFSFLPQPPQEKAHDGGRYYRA
T1 sequence (P08123 80-1119 limits assumed, chain 2 of 2): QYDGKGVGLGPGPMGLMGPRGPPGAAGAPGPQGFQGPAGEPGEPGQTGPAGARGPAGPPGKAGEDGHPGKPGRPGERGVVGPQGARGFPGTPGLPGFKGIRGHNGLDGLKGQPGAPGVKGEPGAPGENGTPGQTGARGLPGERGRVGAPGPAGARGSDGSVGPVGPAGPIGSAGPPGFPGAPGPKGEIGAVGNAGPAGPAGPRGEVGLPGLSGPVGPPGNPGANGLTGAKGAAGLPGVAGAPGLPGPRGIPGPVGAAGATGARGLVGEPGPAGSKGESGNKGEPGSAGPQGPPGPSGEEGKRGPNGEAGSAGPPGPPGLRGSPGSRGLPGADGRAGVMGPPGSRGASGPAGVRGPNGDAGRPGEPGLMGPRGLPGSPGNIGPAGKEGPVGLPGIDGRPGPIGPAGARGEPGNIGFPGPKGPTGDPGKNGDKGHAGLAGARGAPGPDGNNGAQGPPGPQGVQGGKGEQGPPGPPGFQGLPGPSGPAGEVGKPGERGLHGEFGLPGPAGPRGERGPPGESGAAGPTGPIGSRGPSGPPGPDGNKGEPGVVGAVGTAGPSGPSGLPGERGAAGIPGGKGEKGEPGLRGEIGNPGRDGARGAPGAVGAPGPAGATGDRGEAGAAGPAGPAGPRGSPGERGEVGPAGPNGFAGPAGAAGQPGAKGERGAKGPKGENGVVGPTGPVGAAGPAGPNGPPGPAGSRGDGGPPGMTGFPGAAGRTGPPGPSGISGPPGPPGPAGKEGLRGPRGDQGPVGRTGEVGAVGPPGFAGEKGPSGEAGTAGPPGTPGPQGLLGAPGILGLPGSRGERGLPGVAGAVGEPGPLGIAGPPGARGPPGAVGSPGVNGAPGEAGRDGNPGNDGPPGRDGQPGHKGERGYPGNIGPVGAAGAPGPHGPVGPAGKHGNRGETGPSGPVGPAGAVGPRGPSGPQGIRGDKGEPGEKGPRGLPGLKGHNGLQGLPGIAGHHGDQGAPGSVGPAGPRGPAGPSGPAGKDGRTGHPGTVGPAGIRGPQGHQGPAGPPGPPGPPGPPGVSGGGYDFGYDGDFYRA
Protocol: as §1, §2

human fibronectin = target: T2, human fibronectin (human, UniProt P02751 32-2477, limits assumed); assay: as above
T2 construct: Bought, immobilized on plates
T2 sequence (P02751 32-2477 limits assumed): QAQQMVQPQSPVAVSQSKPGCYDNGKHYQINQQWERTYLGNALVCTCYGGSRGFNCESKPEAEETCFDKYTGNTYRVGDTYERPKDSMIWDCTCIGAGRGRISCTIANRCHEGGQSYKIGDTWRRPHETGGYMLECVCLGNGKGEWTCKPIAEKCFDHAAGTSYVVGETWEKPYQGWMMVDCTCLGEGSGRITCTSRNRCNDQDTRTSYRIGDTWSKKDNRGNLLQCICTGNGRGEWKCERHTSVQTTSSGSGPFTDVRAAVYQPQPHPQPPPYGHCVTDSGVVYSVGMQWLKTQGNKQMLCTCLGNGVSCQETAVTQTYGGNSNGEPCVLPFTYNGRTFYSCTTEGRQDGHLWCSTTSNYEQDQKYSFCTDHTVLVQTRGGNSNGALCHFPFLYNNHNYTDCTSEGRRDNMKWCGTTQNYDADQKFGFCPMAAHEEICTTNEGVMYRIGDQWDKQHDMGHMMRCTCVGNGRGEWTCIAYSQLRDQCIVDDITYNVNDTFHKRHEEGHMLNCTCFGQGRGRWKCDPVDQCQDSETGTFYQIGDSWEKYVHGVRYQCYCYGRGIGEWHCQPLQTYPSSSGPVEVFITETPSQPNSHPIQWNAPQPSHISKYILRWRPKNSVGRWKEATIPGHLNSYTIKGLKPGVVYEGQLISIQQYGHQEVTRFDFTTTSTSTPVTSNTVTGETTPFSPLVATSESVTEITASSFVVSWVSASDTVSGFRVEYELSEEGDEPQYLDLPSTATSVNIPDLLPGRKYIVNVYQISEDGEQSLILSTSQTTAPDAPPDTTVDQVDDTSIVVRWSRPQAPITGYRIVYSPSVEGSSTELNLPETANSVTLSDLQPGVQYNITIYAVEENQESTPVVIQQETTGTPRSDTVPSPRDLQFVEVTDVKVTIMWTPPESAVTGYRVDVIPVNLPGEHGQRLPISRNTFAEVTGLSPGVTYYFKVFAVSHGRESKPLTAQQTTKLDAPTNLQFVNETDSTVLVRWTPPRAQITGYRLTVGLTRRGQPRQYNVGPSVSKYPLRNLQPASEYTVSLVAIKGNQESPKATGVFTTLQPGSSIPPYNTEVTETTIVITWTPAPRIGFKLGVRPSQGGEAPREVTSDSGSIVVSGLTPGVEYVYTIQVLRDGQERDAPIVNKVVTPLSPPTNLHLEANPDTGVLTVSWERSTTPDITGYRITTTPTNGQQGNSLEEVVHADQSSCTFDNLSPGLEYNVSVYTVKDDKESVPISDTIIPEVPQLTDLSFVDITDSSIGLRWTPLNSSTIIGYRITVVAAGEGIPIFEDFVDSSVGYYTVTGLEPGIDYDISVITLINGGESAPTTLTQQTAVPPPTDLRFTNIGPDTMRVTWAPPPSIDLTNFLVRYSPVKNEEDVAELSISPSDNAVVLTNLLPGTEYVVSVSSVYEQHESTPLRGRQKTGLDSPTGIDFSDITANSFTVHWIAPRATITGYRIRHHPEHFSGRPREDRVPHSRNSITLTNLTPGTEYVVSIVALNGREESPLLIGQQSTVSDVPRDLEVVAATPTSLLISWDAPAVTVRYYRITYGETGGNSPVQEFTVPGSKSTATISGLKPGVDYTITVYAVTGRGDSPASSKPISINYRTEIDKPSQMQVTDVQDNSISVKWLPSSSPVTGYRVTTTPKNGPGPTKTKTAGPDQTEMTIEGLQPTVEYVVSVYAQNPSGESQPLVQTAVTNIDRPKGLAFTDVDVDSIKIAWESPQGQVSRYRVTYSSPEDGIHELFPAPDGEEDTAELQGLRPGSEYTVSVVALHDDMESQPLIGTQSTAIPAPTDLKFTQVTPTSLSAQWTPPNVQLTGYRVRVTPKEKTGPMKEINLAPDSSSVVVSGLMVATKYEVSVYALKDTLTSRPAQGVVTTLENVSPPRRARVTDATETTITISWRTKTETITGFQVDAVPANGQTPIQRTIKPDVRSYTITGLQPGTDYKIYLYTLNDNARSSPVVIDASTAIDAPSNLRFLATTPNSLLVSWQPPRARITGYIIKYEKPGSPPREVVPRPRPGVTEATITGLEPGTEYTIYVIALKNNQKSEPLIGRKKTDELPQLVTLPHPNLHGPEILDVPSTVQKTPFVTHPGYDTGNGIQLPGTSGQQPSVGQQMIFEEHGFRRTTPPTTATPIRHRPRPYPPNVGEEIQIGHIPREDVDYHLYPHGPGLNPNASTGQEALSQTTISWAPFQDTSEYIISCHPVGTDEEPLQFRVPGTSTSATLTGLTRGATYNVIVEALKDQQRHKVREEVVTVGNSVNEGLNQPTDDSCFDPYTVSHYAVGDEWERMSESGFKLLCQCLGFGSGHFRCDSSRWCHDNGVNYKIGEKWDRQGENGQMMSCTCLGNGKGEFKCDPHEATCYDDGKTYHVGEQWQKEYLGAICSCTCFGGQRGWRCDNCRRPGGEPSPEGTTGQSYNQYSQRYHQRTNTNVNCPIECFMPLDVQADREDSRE
Protocol: as §1, §2

Chain of BSA (bovine) (P02769 25-607 limits assumed): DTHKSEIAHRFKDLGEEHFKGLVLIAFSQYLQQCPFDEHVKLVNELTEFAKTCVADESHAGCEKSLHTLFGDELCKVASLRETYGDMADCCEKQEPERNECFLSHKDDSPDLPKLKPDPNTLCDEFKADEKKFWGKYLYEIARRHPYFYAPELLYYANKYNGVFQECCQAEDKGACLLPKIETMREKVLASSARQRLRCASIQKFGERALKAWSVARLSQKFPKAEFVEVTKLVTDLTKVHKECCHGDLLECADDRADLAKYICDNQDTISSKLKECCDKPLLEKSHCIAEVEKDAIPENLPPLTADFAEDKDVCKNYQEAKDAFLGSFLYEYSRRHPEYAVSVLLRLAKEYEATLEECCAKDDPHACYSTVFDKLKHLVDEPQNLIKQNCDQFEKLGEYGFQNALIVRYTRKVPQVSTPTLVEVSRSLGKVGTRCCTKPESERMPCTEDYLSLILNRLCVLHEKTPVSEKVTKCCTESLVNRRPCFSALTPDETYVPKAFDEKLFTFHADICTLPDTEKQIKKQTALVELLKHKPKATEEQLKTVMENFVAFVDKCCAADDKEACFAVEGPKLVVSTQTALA

B1: non-conjugated horseradish peroxidase (enzyme, UniProt P00433 31-338, looked up)
chain: QLTPTFYDNSCPNVSNIVRDTIVNELRSDPRIAASILRLHFHDCFVNGCDASILLDNTTSFRTEKDAFGNANSARGFPVIDRMKAAVESACPRTVSCADLLTIAAQQSVTLAGGPSWRVPLGRRDSLQAFLDLANANLPAPFFTLPQLKDSFRNVGLNRSSDLVALSGGHTFGKNQCRFIMDRLYNFSNTGLPDPTLNTTYLQTLRGLCPLNGNLSALVDFDLRTPTIFDNKYYVNLEEQKGLIQSDQELFSSPNATDTIPLVRSFANSTQTFFNAFVEAMDRMGNITPLTGTQGQIRLNCRVVNSNS
notes: Negative control; also called HRPO; HRPO (negative control)
OD492 (BSA (bovine)): 0.028 OD492
OD492 (human laminin): 0.038 OD492
OD492 (human collagen type I): 0.049 OD492
OD492 (human fibronectin): 0.038 OD492

Source: US20050019345A1 (published 2005)
